Test results taken from patent US20250122306A1 (SUTRO BIOPHARMA, published 2025).
Numbering of substitutions follows the chain as printed.

Experiments:
[1] = molecular target: T1, cynomolgus tissue factor (cynomolgus TF, Sino Bio #90885-C08H) (cynomolgus monkey, UniProt P13726 33-251 (human entry)); experiment: Biacore SPR, single-point off-rate (100 nM antigen), antibody captured on anti-Fc
T1 construct: bought recombinant antigen; also called cyno TF
T1 chain: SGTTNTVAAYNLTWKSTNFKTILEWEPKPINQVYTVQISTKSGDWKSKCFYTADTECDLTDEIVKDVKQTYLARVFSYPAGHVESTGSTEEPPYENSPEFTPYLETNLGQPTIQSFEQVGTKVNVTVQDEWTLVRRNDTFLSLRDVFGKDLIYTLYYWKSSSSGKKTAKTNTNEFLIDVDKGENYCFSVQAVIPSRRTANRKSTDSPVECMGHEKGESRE
Description: (§1) Anti-Fc polyclonal antibodies were immobilized onto a CM4 chip (Cytiva #BR100534) using amine coupling chemistry (Human Antibody Capture Kit, Cytiva #BR100839). The immobilization steps were carried out at a flow rate of 25 μL/min in 1×HBS-EP+buffer (Cytiva #BR100669). The sensor surfaces were activated for 7 min with a mixture of N-hydroxysuccinimide (NHS, 0.05 M) and 1-ethyl-3-(3-dimethylaminopropyl)-carbodiimide (EDC, 0.2 M). The anti-Fc polyclonal antibodies were injected over all 4 flow cells at a concentration of 25 μg/mL in 10 mM sodium acetate, pH 4.5, for 7 min. Ethanolamine (1 M, pH 8.5) was injected for 7 min to block any remaining activated groups.
(§2) Off-rate and kinetic binding experiments were performed at 25° C. using 1×HBS-EP+buffer. Antibodies were injected over the anti-Fc surface at a concentration of 3 μg/mL for 12 seconds at a flow rate of 10 μL/min on flow cells 2, 3 and 4, followed by a buffer wash for 30 seconds at the same flow rate. Single point off-rate analysis was carried out using an antigen concentration of 100 nM. […] After capturing ligand (antibody) on the anti-Fc surface, the analyte (human TF, Lake Pharma; cynomolgus TF, Sino Bio #90885-C08H; mouse TF, R&D Systems #3178-PA) was bound for 180 seconds, followed by a 420 second dissociation phase at a flow rate of […]. Between each ligand capture and analyte binding cycle, regeneration was carried out using 2 injections of 10 mM glycine pH 2.0 for 30 seconds at 30 μL/min, followed by a 30 second buffer wash step.

[2] = molecular target: T2, human tissue factor (human TF, Lake Pharma) (human, UniProt P13726 33-251, limits assumed); experiment: as above
T2 construct: bought recombinant antigen; also called CD142
Description: as §1, §2

[3] = molecular target: tissue factor reagent of the Tissue Factor Activity Assay Kit (Abcam #ab108906) (UniProt P13726 33-295, limits assumed); experiment: cell-based or functional assay
[4] = molecular target: T3, human tissue factor on cells (human, UniProt P13726 33-295); experiment: flow cytometry on BxPC3 cells (TF positive), one-site fit of MFI
T3 construct: cell-surface TF, transfected (HEK293T-humanTF) or endogenous (tumour lines, keratinocytes); the cell line is named under assay; also called HEK293T-humanTF; TF on BxPC3, primary human keratinocytes, NCI-H292, HCC1954, NCI-H1975
Text: HEK293T, BxPC3 cells (TF positive) and NCI-H1703 (TF negative) cells were obtained from ATCC (American Type Culture Collection) and maintained in DMEM: F12 (1:1), high glucose (Corning) supplemented with 10% heat-inactivated fetal bovine serum (ThermoScientific), 1× Penicillin/Streptomycin (Corning) and 2 mmol glutamax (Thermo Fisher Scientific). To generate cells that stably expressing human tissue factor (HEK293T-humanTF) or cynomolgus tissue factor (HEK293T-cynoTF), HEK293T cells were transfected with plasmid vectors that contain the corresponding protein sequence and stable clones were selected with puromycin.
For a fluorescence-activated cell sorting (FACS) cell-binding assay, cells were collected by Accutase and counted by the Vi-CELL Cell Viability Analyzersharvested and, then re-suspended in FACS buffer (DPBS buffer supplemented with 1% bovine serum albumin). A total of 200,000 cells in 100 μL were incubated on ice with 100 μL of anti-TF antibodies in each well of a 96-well plate. Cells were washed twice with ice-cold FACS buffer and then incubated on ice for 60 mins with 5 μg/mL Alexa 647-labeled donkey anti-human Fc antibody (Jackson ImmunoResearch). Unstained cells and cells stained with secondary antibody alone were used as controls. Cells were washed twice with FACS buffer and analyzed using a BD FACS Canto system. Geometric mean fluorescence intensities (MFI) were fitted using non-linear regression analysis with one site specific binding equation on GraphPad Prism (GraphPad Software; La Jolla, CA).

[5] = molecular target: T1, cynomolgus tissue factor (cynomolgus …); experiment: Biacore SPR kinetics, ADC captured on anti-Fc, 1:1 Langmuir fit
Description: (§3) Anti-Fc polyclonal antibodies were immobilized onto a CM4 chip (Cytiva #BR100534) using amine coupling chemistry (Human Antibody Capture Kit, Cytiva #BR100839). The immobilization steps were carried out at a flow rate of […] in 1×HBS-EP+buffer (Cytiva #BR100669). The sensor surfaces were activated for 7 min with a mixture of NHS (0.05 M) and EDC (0.2 M). The Anti-Fc antibodies were injected over all 4 flow cells at a concentration of 25 μg/ml in 10 mM sodium acetate, pH 4.5, for 7 min. Ethanolamine (1 M, pH 8.5) was injected for 7 min to block any remaining activated groups. […] Off-rate and kinetic binding experiments were performed at 25° C. using 1×HBS-EP+buffer. Antibodies or ADCs were injected over the anti-Fc surface at a concentration of 3 μg/mL for 12 seconds at a flow rate of 10 μL/min on flow cells 2, 3 and 4, followed by a buffer wash for 30 seconds at the same flow rate. […] After capturing ligand (antibody) on the anti-Fc surface, the analyte (human TF, Lake Pharma; cynomolgus TF, Sino Bio #90885-C08H; mouse TF, R&D Systems #3178-PA) was bound for 180 seconds, followed by a 420 second dissociation phase at a flow rate of 50 μL/min. Between each ligand capture and analyte binding cycle, regeneration was carried out using 2 injections of 10 mM Glycine pH 2.0 for 30 seconds at 30 μL/min, followed by a 30 second buffer wash step. The data was fit with the Biacore T200 Evaluation software, using a 1-1 Langmuir binding model. KD (affinity, nM) was determined as a ratio of the kinetic rate constants calculated from the fits of the association and dissociation phases.

[6] = molecular target: T2, human tissue factor (human TF, Lake …); experiment: as above
Description: as §3

tissue factor reagent of the Tissue Factor Activity Assay Kit (Abcam #ab108906), sequence (P13726 33-295 limits assumed): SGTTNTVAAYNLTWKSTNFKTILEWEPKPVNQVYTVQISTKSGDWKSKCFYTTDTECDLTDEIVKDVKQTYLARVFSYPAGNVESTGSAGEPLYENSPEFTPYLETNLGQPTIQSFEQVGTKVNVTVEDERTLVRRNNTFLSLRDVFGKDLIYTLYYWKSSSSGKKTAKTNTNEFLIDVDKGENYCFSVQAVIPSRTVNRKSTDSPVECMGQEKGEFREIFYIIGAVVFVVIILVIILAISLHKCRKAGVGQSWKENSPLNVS
T3 sequence (P13726 33-295 limits assumed): as above

B1: 2842-B01 HC1/LC1 (antibody, V domains shown)
VH: QVQVVESGGGLVKPGGSLRLSCAASGFSISSYDMSWIRQAPGKGLEWIGIIGSNGRTYYADSVKGRFTISRNTNENTVYLQMNSLRAEDTAVYYCARGLYDGTGNIWGQGTLVTVSS
VL: DLQMTQSPSSLSASVGDRVTITCRASQSVYGNNWLSWYQQKPGKAPKLLIYGASKLASGVPSRFSGSGSGTQFTLTISSLQPEDFATYYCQGTYYSGDWYFAFGQGTKVEIK
notes: humanized rabbit antibody, variable regions fused to human IGHG1 and IGKC
[1]
  koff: 0.00352 s⁻¹
[2]
  koff: 0.000727 s⁻¹
[3]
  FX conversion (% inhibition), 1000 nM antibody: -0.45%

B2: SRP2901-D03 (antibody, V domains shown)
VH: B1 VH with Q1E, V4L, K13Q, I37V, A60P, N72D, T73N, N74S, E75K, Y79T
VL: B1 VL
notes: humanized rabbit antibody, variable regions fused to human IGHG1 and IGKC; also called 2842-B01 HC3/LC1
[1]
  koff: 0.00187 s⁻¹
[2]
  koff: 0.000416 s⁻¹
[4]
  Bmax (MFI): 29100 MFI
  Kd: 344 pM
[3]
  FX conversion (% inhibition), 1000 nM antibody: -1.6%

B3: SRP2901-F01 (antibody, V domains shown)
VH: B1 VH
VL: B1 VL with L2I, R24Q, Q72D, Q105G
notes: humanized rabbit antibody, variable regions fused to human IGHG1 and IGKC; also called 2842-B01 HC1/LC3
[1]
  koff: 0.00117 s⁻¹
[2]
  koff: 0.00054 s⁻¹
[4]
  Bmax (MFI): 25400 MFI
  Kd: 610 pM
[3]
  FX conversion (% inhibition), 1000 nM antibody: 0.77%

B4: 2842-B01 HC1/LC2 (antibody, V domains shown)
VH: B1 VH
VL: ELVMTQSPPTLSLSPGERVTLSCRASQSVYGNNWLSWYQQKPGQAPRLLIYGASKLATSIPARFSGSGSGTQFTLTISSLQPEDFAVYYCQGTYYSGDWYFAFGQGTKVEIK
notes: as for B1
[1]
  koff: 0.00142 s⁻¹
[2]
  koff: 0.000691 s⁻¹
[3]
  FX conversion (% inhibition), 1000 nM antibody: -0.99%

B5: SRP2901-E03 (antibody, V domains shown)
VH: B1 VH with Q1E, V4L, K13Q, I37V, A60P, N72D, T73N, N74S, E75K, Y79T
VL: B4 VL
notes: humanized rabbit antibody, variable regions fused to human IGHG1 and IGKC; also called 2842-B01 HC3/LC2
[1]
  koff: 0.000782 s⁻¹
[2]
  koff: 0.000361 s⁻¹
[4]
  Bmax (MFI): 35200 MFI
  Kd: 386 pM
[3]
  FX conversion (% inhibition), 1000 nM antibody: -0.84%

B6: SRP2901-B05 (antibody, V domains shown)
VH: QVQVQESGPGLVKPPGTLSLTCAVSGFSLSYYGVSWVRQPPGKGLEWIGTIDSSGRTYYNPSLKSRVTISNDNAPNTVSLKLSSVTAADTAVYYCARDFYGWNSGALDIWGQGTLVTVSS
VL: DLQLTQSPSTLSASVGDRVTITCRASQSVYSNKYLSWYQQKPGKAPKLLIYKASTLASGVPSRFSGSGSGTEFTLTISSLQPDDFATYYCAAAYSDDSDTAFGQGTKVEIK
notes: humanized rabbit antibody, variable regions fused to human IGHG1 and IGKC; also called 2842-G04 HC2/LC2
[1]
  koff: 0.0017 s⁻¹
[2]
  koff: 0.000736 s⁻¹
[4]
  Bmax (MFI): 42800 MFI
  Kd: 389 pM
[3]
  FX conversion (% inhibition), 1000 nM antibody: 0.62%

B7: Conjugate 7: 2900-A02 F241/F404 LP2 (antibody, human IgG1, kappa)
heavy: MEVQLVESGGGLVQPGGSLRLSCAASGFTISGYIIHWVRQAPGKGLEWVGYIDPSNGYTYYADSVKGRFTISADTSKNTAYLQMNSLRAEDTAVYYCARDDQSLSSPFDYWGQGTLVTVSSASTKGPSVFPLAPSSKSTSGGTAALGCLVKDYFPEPVTVSWNSGALTSGVHTFPAVLQSSGLYSLSSVVTVPSSSLGTQTYICNVNHKPSNTKVDKKVEPKSCDKTHTCPPCPAPELLGGPSVLFPPKPKDTLMISRTPEVTCVVVDVSHEDPEVKFNWYVDGVEVHNAKTKPREEQYNSTYRVVSVLTVLHQDWLNGKEYKCKVSNKALPAPIEKTISKAKGQPREPQVYTLPPSREEMTKNQVSLTCLVKGFYPSDIAVEWESNGQPENNYKTTPPVLDSDGSFLYSKLTVDKSRWQQGNVFSCSVMHEALHNHYTQKSLSLSPGK
light: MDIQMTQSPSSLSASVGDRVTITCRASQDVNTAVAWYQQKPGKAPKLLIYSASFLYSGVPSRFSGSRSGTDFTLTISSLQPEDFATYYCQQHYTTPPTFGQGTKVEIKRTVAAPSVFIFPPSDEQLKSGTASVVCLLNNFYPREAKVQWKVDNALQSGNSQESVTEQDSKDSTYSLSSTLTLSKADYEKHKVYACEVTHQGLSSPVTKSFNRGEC
modifications: pAMF at F241 and F404 (EU), each linked to LP2 (DBCO-beta-Glucuronide-PEG12-Exatecan)
notes: antibody-drug conjugate, DAR about 4; also called Trastuzumab LC SerOpt
[5]
  Kd: 1770 pM
  koff: 0.00103 s⁻¹
  kon: 582000 M⁻¹ s⁻¹
[6]
  Kd: 4110 pM
  koff: 0.00209 s⁻¹
  kon: 508000 M⁻¹ s⁻¹
